Laboratory results from patent US20200199241A1 (Chugai, published 2020).
Changes are numbered by the printed parent chain.

B1: IgG1-F803 (antibody)
heavy: QVQLQESGPGLVKPSETLSLTCAVSGHSISHDHAWSWVRQPPGEGLEWIGFISYSGITNYNPSLQGRVTISRDNSKNTLYLQMNSLRAEDTAVYYCARSLARTTAMDYWGEGTLVTVSSASTKGPSVFPLAPSSKSTSGGTAALGCLVKDYFPEPVTVSWNSGALTSGVHTFPAVLQSSGLYSLSSVVTVPSSSLGTQTYICNVNHKPSNTKVDKKVEPKSCDKTHTCPPCPAPELLGGPSVFLFPPKPKDTLYISRTPEVTCVVVDVSHEDPEVKFNWYVDGVEVHNAKTKPREEQYNSTYRVVSVLTVLHQDWLWGKEYKCKVSNKALPAPIEKTISKAKGQPREPQVYTLPPSRDELTKNQVSLTCLVKGFYPSDIAVEWESNGQPENNYKTTPPVLDSDGSFFLYSKLTVDKSRWQQGNVFSCSVMHEALHYHYTQKSLSLSP
light: not shown
notes: EU numbering; copies: 2 + 2
B2: IgG1-F804 (antibody)
heavy: B1 heavy with W317Y
light: not shown
notes: EU numbering; copies: 2 + 2
B3: IgG1-F805 (antibody)
heavy: B1 heavy with W317N, N327A
light: not shown
notes: EU numbering; copies: 2 + 2
B4: IgG1-F806 (antibody)
heavy: B1 heavy with W317N, N386A
light: not shown
notes: EU numbering; copies: 2 + 2
B5: IgG1-F807 (antibody)
heavy: B1 heavy with W317N, N391A
light: not shown
notes: EU numbering; copies: 2 + 2
B6: IgG1-F808 (antibody)
heavy: B1 heavy with W317N, N391A, N392A
light: not shown
notes: EU numbering; copies: 2 + 2
B7: IgG1-F809 (antibody)
heavy: B1 heavy with S256T, T258S, W317N
light: not shown
notes: EU numbering; copies: 2 + 2
B8: IgG1-F810 (antibody)
heavy: B1 heavy with W317N, A380V
light: not shown
notes: EU numbering; copies: 2 + 2
B9: IgG1-F811 (antibody)
heavy: B1 heavy with W317N, E382S
light: not shown
notes: EU numbering; copies: 2 + 2
B10: IgG1-F812 (antibody)
heavy: B1 heavy with W317N, E384V
light: not shown
notes: EU numbering; copies: 2 + 2
B11: IgG1-F813 (antibody)
heavy: B1 heavy with W317N, S426E
light: not shown
notes: EU numbering; copies: 2 + 2
B12: IgG1-F814 (antibody)
heavy: B1 heavy with W317N, Y438I
light: not shown
notes: EU numbering; copies: 2 + 2
B13: IgG1-F815 (antibody)
heavy: B1 heavy with W317N, T439R
light: not shown
notes: EU numbering; copies: 2 + 2
B14: IgG1-F816 (antibody)
heavy: B1 heavy with P240D, T252V, T309P, W317N
light: not shown
notes: EU numbering; copies: 2 + 2
B15: IgG1-F817 (antibody)
heavy: B1 heavy with P240D, T252V, T309Q, Q313A, W317N
light: not shown
notes: EU numbering; copies: 2 + 2
B16: IgG1-F819 (antibody)
heavy: B1 heavy with P240D, N288E, W317N
light: not shown
notes: EU numbering; copies: 2 + 2
B17: IgG1-F820 (antibody)
heavy: B1 heavy with L237K, S241K, W317N
light: not shown
notes: EU numbering; copies: 2 + 2
B18: IgG1-F821 (antibody)
heavy: B1 heavy with L237R, S241K, W317N
light: not shown
notes: copies: 2 + 2
B19: IgG1-F822 (antibody)
heavy: B1 heavy with P240D, T252Y, W315Y, W317N
light: not shown
notes: EU numbering; copies: 2 + 2
B20: IgG1-F823 (antibody)
heavy: B1 heavy with P240D, T252Y, W315F, W317N
light: not shown
notes: EU numbering; copies: 2 + 2
B21: IgG1-F828 (antibody)
heavy: B1 heavy with P240D, T252V, I255V, W317N
light: not shown
notes: EU numbering; copies: 2 + 2
B22: IgG1-F831 (antibody)
heavy: B1 heavy with P240D, T252V, R257A, W317N
light: not shown
notes: EU numbering; copies: 2 + 2
B23: IgG1-F832 (antibody)
heavy: B1 heavy with P240D, T252V, R257D, W317N
light: not shown
notes: EU numbering; copies: 2 + 2
B24: IgG1-F833 (antibody)
heavy: B1 heavy with P240D, T252V, R257E, W317N
light: not shown
notes: EU numbering; copies: 2 + 2
B25: IgG1-F834 (antibody)
heavy: B1 heavy with P240D, T252V, R257F, W317N
light: not shown
notes: EU numbering; copies: 2 + 2
B26: IgG1-F836 (antibody)
heavy: B1 heavy with P240D, T252V, R257H, W317N
light: not shown
notes: EU numbering; copies: 2 + 2
B27: IgG1-F837 (antibody)
heavy: B1 heavy with P240D, T252V, R257I, W317N
light: not shown
notes: EU numbering; copies: 2 + 2
B28: IgG1-F838 (antibody)
heavy: B1 heavy with P240D, T252V, R257K, W317N
light: not shown
notes: EU numbering; copies: 2 + 2
B29: IgG1-F839 (antibody)
heavy: B1 heavy with P240D, T252V, R257L, W317N
light: not shown
notes: EU numbering; copies: 2 + 2
B30: IgG1-F840 (antibody)
heavy: B1 heavy with P240D, T252V, R257M, W317N
light: not shown
notes: EU numbering; copies: 2 + 2
B31: IgG1-F841 (antibody)
heavy: B1 heavy with P240D, T252V, R257N, W317N
light: not shown
notes: EU numbering; copies: 2 + 2
B32: IgG1-F843 (antibody)
heavy: B1 heavy with P240D, T252V, R257Q, W317N
light: not shown
notes: EU numbering; copies: 2 + 2
B33: IgG1-F844 (antibody)
heavy: B1 heavy with P240D, T252V, R257S, W317N
light: not shown
notes: EU numbering; copies: 2 + 2
B34: IgG1-F847 (antibody)
heavy: B1 heavy with P240D, T252V, R257W, W317N
light: not shown
notes: EU numbering; copies: 2 + 2
B35: IgG1-F848 (antibody)
heavy: B1 heavy with P240D, T252V, R257Y, W317N
light: not shown
notes: EU numbering; copies: 2 + 2
B36: IgG1-F849 (antibody)
heavy: B1 heavy with D282A, W317N
light: not shown
notes: EU numbering; copies: 2 + 2
B37: IgG1-F850 (antibody)
heavy: B1 heavy with D282E, W317N
light: not shown
notes: EU numbering; copies: 2 + 2
B38: IgG1-F852 (antibody)
heavy: B1 heavy with D282G, W317N
light: not shown
notes: EU numbering; copies: 2 + 2
B39: IgG1-F853 (antibody)
heavy: B1 heavy with D282H, W317N
light: not shown
notes: EU numbering; copies: 2 + 2
B40: IgG1-F855 (antibody)
heavy: B1 heavy with D282K, W317N
light: not shown
notes: EU numbering; copies: 2 + 2
B41: IgG1-F858 (antibody)
heavy: B1 heavy with D282N, W317N
light: not shown
notes: EU numbering; copies: 2 + 2
B42: IgG1-F860 (antibody)
heavy: B1 heavy with D282Q, W317N
light: not shown
notes: EU numbering; copies: 2 + 2
B43: IgG1-F861 (antibody)
heavy: B1 heavy with D282R, W317N
light: not shown
notes: EU numbering; copies: 2 + 2
B44: IgG1-F862 (antibody)
heavy: B1 heavy with D282S, W317N
light: not shown
notes: EU numbering; copies: 2 + 2
B45: IgG1-F863 (antibody)
heavy: B1 heavy with D282T, W317N
light: not shown
notes: EU numbering; copies: 2 + 2
B46: IgG1-F867 (antibody)
heavy: B1 heavy with W317N, N386A, N391A
light: not shown
notes: EU numbering; copies: 2 + 2
B47: IgG1-F868 (antibody)
heavy: B1 heavy with G238A, S241D, N288E, T309Q, Q313A, W317N
light: not shown
notes: EU numbering; copies: 2 + 2
B48: IgG1-F870 (antibody)
heavy: B1 heavy with L237K, S241K, T309Q, Q313A, W317N
light: not shown
notes: EU numbering; copies: 2 + 2
B49: IgG1-F871 (antibody)
heavy: B1 heavy with L237R, S241K, T309Q, Q313A, W317N
light: not shown
notes: EU numbering; copies: 2 + 2
B50: IgG1-F872 (antibody)
heavy: B1 heavy with L237K, S241K, N288E, W317N
light: not shown
notes: EU numbering; copies: 2 + 2
B51: IgG1-F873 (antibody)
heavy: B1 heavy with L237R, S241K, N288E, W317N
light: not shown
notes: EU numbering; copies: 2 + 2
B52: IgG1-F875 (antibody)
heavy: B1 heavy with W317N, Y438A
light: not shown
notes: EU numbering; copies: 2 + 2
B53: IgG1-F877 (antibody)
heavy: B1 heavy with W317N, Y438E
light: not shown
notes: EU numbering; copies: 2 + 2
B54: IgG1-F878 (antibody)
heavy: B1 heavy with W317N, Y438F
light: not shown
notes: EU numbering; copies: 2 + 2
B55: IgG1-F879 (antibody)
heavy: B1 heavy with W317N, Y438G
light: not shown
notes: EU numbering; copies: 2 + 2
B56: IgG1-F880 (antibody)
heavy: B1 heavy with W317N, Y438H
light: not shown
notes: EU numbering; copies: 2 + 2
B57: IgG1-F881 (antibody)
heavy: B1 heavy with W317N, Y438K
light: not shown
notes: EU numbering; copies: 2 + 2
B58: IgG1-F882 (antibody)
heavy: B1 heavy with W317N, Y438L
light: not shown
notes: EU numbering; copies: 2 + 2
B59: IgG1-F883 (antibody)
heavy: B1 heavy with W317N, Y438M
light: not shown
notes: EU numbering; copies: 2 + 2
B60: IgG1-F884 (antibody)
heavy: B1 heavy with W317N, Y438N
light: not shown
notes: EU numbering; copies: 2 + 2

molecular target: T1, soluble human FcRn complexed with β2-microglobulin (human, UniProt P61769 21-119, limits assumed); assay: Biacore SPR, pH 7.0;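 also: test antibodies captured on a Protein L chip with human FcRn flowed over as analyte, KD obtained as the ratio of dissociation to association rate constants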
T1 construct: also called hFcRn
T1 sequence (chain, as listed by the source limits assumed, chain 1 of 2): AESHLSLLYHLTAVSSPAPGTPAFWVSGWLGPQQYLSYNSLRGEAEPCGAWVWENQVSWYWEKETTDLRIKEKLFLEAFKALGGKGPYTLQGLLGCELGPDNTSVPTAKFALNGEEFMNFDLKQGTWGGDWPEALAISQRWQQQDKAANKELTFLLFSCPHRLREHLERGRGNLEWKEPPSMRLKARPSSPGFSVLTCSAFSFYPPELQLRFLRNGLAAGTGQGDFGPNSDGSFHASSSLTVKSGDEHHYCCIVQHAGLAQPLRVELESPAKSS
T1 sequence (P61769 21-119 limits assumed, chain 2 of 2): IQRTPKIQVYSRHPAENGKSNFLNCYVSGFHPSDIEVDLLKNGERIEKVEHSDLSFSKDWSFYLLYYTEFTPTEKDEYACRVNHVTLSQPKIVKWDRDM

Binder	Kd
B1	360 nM
B2	400 nM
B3	300 nM
B4	310 nM
B5	320 nM
B6	320 nM
B7	220 nM
B8	220 nM
B9	490 nM
B10	270 nM
B11	280 nM
B12	120 nM
B13	550 nM
B14	360 nM
B15	98 nM
B16	140 nM
B17	340 nM
B18	310 nM
B19	1100 nM
B20	1100 nM

Binder	Kd
B21	2500 nM
B22	1600 nM
B23	2600 nM
B24	800 nM
B25	810 nM
B26	500 nM
B27	560 nM
B28	430 nM
B29	340 nM
B30	420 nM
B31	1100 nM
B32	660 nM
B33	1300 nM
B34	340 nM
B35	830 nM
B36	330 nM
B37	290 nM
B38	330 nM
B39	320 nM
B40	320 nM

Binder	Kd
B41	320 nM
B42	330 nM
B43	320 nM
B44	300 nM
B45	270 nM
B46	280 nM
B47	20 nM
B48	73 nM
B49	71 nM
B50	130 nM
B51	120 nM
B52	480 nM
B53	830 nM
B54	190 nM
B55	920 nM
B56	390 nM
B57	310 nM
B58	130 nM
B59	210 nM
B60	400 nM
